Assay results: the nanobody polyreactivity screen of Harvey et al. (2022)

Assay: yeast display, Sf9 membrane polyspecificity reagent, FACS + sequencing; frameworks hold sequencing errors
Summary of the method: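 Synthetic nanobody libraries on Saccharomyces cerevisiae BJ5465 were galactose-induced for 36–48 hours, stained 1 hour at 4 °C with 10% biotinylated, detergent-solubilized Sf9 membrane reagent and enriched on streptavidin microbeads. FACS then separated cells into low and high (top ~1%) gates by anti-HA (expression) and streptavidin (reagent binding) fluorescence. Genes were colony-PCR amplified, MiSeq 2 × 250 sequenced and CDR-length filtered. A clone's polyreactivity label is that of its gate of origin.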

QVQLVESGGGLVQAGGSLRLSCAASGRIFTGYAMGWYRQAPGKEREFVAAITGRGGSTYYADSVKGRFTISRDNAKNTVYLLMNSLKPEDTAVYYCNALPRSPWYYRGDYWGQGTQVTVSS
polyreactivity (PSR sort gate): high polyreactivity

QVQLVESGGGLVQAGGSLRLSCAASGRIFTSNAMGWYRQAPGKERELVASITSSSSTNYADSVKGRFTLSRDNAKNTVYLQMNSLKPEDTAVYYCAAERVWPYGHDYWGQGTQVTVSS
polyreactivity (PSR sort gate): low polyreactivity

QVQLVESGGGLVQAGGSLRLSCAASGSTFQFNFMGWYRQAPGKERELVAAITSGASTYYADSVKGRFTISRDNAMNTVYLQMNSLEPEDTAVYYCAVDYSFRYDYVQRYYYLGQGTQVTVSS
polyreactivity (PSR sort gate): high polyreactivity

HVQLVESGGGLVQAGGSLRVSCAASGSTFTRNAMGWYRQAPGKERELVAAITLRGGRTYYADSVKGRFTISRDNAKNTVYLQMNSLKPEDTAVYYCAAKPYTAYSYYEQRGRKYDYWGQGTQVTVSS
polyreactivity (PSR sort gate): low polyreactivity

QVQLEESGGGLVQAGGSLRLSCAASGITFSLYVMGWFRPAPGKESELVATISFNVASTYADSVKGRFTISRVNAKNTVYLQMYSLTPEDTAVYYCNADTYWYRDSRYDYCGQGTQVTVSS
polyreactivity (PSR sort gate): low polyreactivity

QVQLQESGGGLVQAGGSLRLSCAASGTISDSGLMGWYRQAPGKERELVAGISSGGITNYADSVKGRFTISRDIAKNTVYLQMNSLKPEDTAVYWGQGTQVTVSS
polyreactivity (PSR sort gate): low polyreactivity

QVQLVESGGGLVQAGGSLRLSCAASARTFSYYTMGWSRQEPGKARELVARISNRGTNTYYADSVKGRFTISRDNAKNTVYLQMNSLKPEDTAVYYFAKYYYSSIVGYDSWGQGTQLTVSS
polyreactivity (PSR sort gate): low polyreactivity

QVQLVESGGGLVQAGGSLRLSCAASGRTLDWNAMGWYRQAPGKERELVAAISWSGDSTYYADSVKGRFTISRDNAKNTVYLQMNSLKPEDTAVYYCAARYGRSWGRGYGYWGQGTQVTVSS
polyreactivity (PSR sort gate): low polyreactivity

QVQLVESGGGLVQAGGSLRLSCAASGGTFYYYAMGWYRQAPGKERELVAAITGTGGRTYYADSVKGRFTISRDNAKNTVYLQMNSLKPEDTAVYYCAKYPAARAVDYWGQGTQVTVSS
polyreactivity (PSR sort gate): high polyreactivity

QVQLVESGGGLVQAGGSLRLSCAASGNIFAYYAMGWYRQAPGKERELVAAISRRGGSTYYADSVKGRFTISRDNAKNTVYLQMNSLKPEDTAVYYCNADTGNRGYDYWGQGTQVTVSS
polyreactivity (PSR sort gate): high polyreactivity

QVQLVESGGGLVQAGGSLRLSCAASGGTLRYYAMGWYRQAPGTEREFVASIARSGGSTYYADSVKGGFTISRDNAKNTVYLQMNRLKPEDTAVYYCADRVRLYRGFTKYDYWGQGTQVTVSS
polyreactivity (PSR sort gate): high polyreactivity

QVQLVESGGGLVQAGGSLRLSCAASGSIFRWYAMGWYRQAPGKERELVAAITWSASRTYYADSVKGRFTISRDNAKNTVYLQMNSLKPEDTAVYYCAKRGWSSVYFHGGFGYKLYDYWGQGTQVTVSS
polyreactivity (PSR sort gate): low polyreactivity

QVQLVESGGGLVQAGGSLRLSCAASGFTFPVYAMGWYRQAPGKERELVAAISRRGGRTYYADSVKGRFTISRDNAKNTVYLQMNSLKPEDTAVYYCAAQSVPYAYRLASYDYWGQGTQVTVSS
polyreactivity (PSR sort gate): high polyreactivity

QVQLVESGGGLVQAGGSLRLSCAASGRTFGRNAMGWYRQAPGKERELVAAISSSADRTYYADSVKGRFTISRDNAKNNVYVEMNSLKPEDTAVYYCAARTFWGAYDYWGQGTQVTVSS
polyreactivity (PSR sort gate): high polyreactivity

QVQLVESGGGLVQAGGSLRLSCAASGSILRGYAMGWYRQAPGKERELVAAITWNGGSTYYADSVKGRFTISRDNAKNTVYLQMNSLKPEDTAVYYCNRAIGPYSYPDNYWGQGTQVTVSS
polyreactivity (PSR sort gate): high polyreactivity

QVQLVESGGGLVQAGGSLRLSCAASGRTFGYYAMGWYRPAPGKEREFVAAISFRTTSTYYADSVKGRFTISRDNAKNTVYLQLNSLKPEDTAVYYCNVVVKGAWDYYPYDYWGQGPQVTVSS
polyreactivity (PSR sort gate): high polyreactivity

QVQLVESGGGLVQAGGSLRLSCAASGITFLNYAMGWYRQAPGKERELVAAISWSRGRTYYADSVKGRFTISRDNAKNTGYLQMNSLKPEDTAVYDCAADRGVNSYGYWGQGTQVTVSS
polyreactivity (PSR sort gate): high polyreactivity

QVQLVESGGGLVQAGGSLRLSCAASGSTFFPYAMGWYRPAPGKERELVAAIRWSGGRTYYADSVKGRFTISRDNAKNTVYLQMNSLKPEDTAVYYCAADKYLDYDYWGQGTQVTVSS
polyreactivity (PSR sort gate): high polyreactivity

QVQLVESGGGLVQAGGSLRLSCAASGFIFTNYAMGWYRQAPGKERELVAAITRRGGGTYYADSVKGRFTISRDNAKNTVYLQMNSLKPEDTAVYYCAKYSRLVTANDYDYWGQGTQVTVSS
polyreactivity (PSR sort gate): high polyreactivity

QVQLVESGGGLVQAGGSLRLSCAASGNTFNYYTMGWYRQEPGKERELVAAIRSGGRTYYADSVKGRFTISRDNAKNTVYLLMNSLIPEDTAVYDCAAVAVTYRYDYWGQGTQVTVSS
polyreactivity (PSR sort gate): high polyreactivity

QVQLVESGGGLVQAGGSLRLSCAASGRTFRYNAMGWYRQAPGKERELVADITFSGGNTYYADSVKGRFTISRDNAKNTVYLQMNSLKPEDTAVYYCAKRRYYTGGMDYWGQGTQVTVSS
polyreactivity (PSR sort gate): low polyreactivity

KVQLVESGGGLVQAGGSLRLSCAASGSTFSYYAMGWYRQGPGKERELVAAITRSGYSTYYADSVKGRFTISLDNAKNTVYLQMNSLKPEDTAVYYCNTVSRYKYPKPTYYQSSFYYWGQGTQVTVSS
polyreactivity (PSR sort gate): high polyreactivity

QVQLVESGGGLVQAGGSLRLSCASSGRTFVWNAMGWYRQAPGKERELVAAIDWSGGSTYYADSVKGRFTISRDNAKNTVYLQMNSLKPEDTAVYYCAKEYWYRALWYNYWGQGTQVTVSS
polyreactivity (PSR sort gate): high polyreactivity

QVQLVESGGGLVQAGGSLRLSCAASGGIFWVNAMGWYRQAPGKERELVAAISWSDDNTYYADSVKGRFTISRDNAKNTVYLQMNSLKPEDTAVYYCAKDFYDYGSFYWYEYWGQGTQVTVSS
polyreactivity (PSR sort gate): high polyreactivity

QVQLVESGGGLVQAGGSLRLSCAASGSTFQYYAMGWYRQAPGKERELVAAISSGGRTNYADSVKGRFTISRDNAKNTVYLQMNSLKPEDTAVYYCAARWCYTKGEFDYWGQGTQVTVSS
polyreactivity (PSR sort gate): high polyreactivity

QVQLVESGGGLVQAGGSLRLSCAASGRTFYKYAMGWYRQAPGKERELVAAISSRGGRTYYADSVKGRFTISRDNATNTVYLQMNSLKPEDTAVYYCAAKGRPDGKYDYWGQGTQVTVSS
polyreactivity (PSR sort gate): high polyreactivity

QVQLVESGGGLVQAGGSLRLTCAASGFTFYRNTMGWYRQAPGKERELVAAITQRGGSTYYADSVKGRFTISRDNAKNTVYLQMNSLKPEDTAVYYCNRDVKVLYASSHSPYGYDHWGQGTQVTVSS
polyreactivity (PSR sort gate): low polyreactivity

QVQLVESGGGLVQAGGSLRLSCAASGSILRLYVMGWYRQAPGKERELVADISDRGGSTYYADSVKGRFTISRDNAKNTVYLQMNSLKPEDTAVYYCAAEWGQSGGGGYYYWGQGTQVTVSS
polyreactivity (PSR sort gate): low polyreactivity

QVQHVESGGGLVQAGGSLRLSCDASGRIFLYKAMGWYRQAPGKERELVAAIDGGGTTYADSVKGRFTISRDNAKNTVYLQRNSLKPEDTAVYYCAADWYYQYSIYRYGYWGQGTQVTVSS
polyreactivity (PSR sort gate): low polyreactivity

QVQLVESCGGIVQAGGSLRLICAASGRIFDSNAMGWYRQSPGKETELVAAITTSGGSTFYADSVKVRFTISRDNAMNTVYLQMISLKPEDTAVYYCAAGYSFYYHAIFPFDYWGQGNQVTVSS
polyreactivity (PSR sort gate): high polyreactivity

QVQLVESGGGLVQAGGSLRLSCAASGRTFTSYAMGWYRQAPGKERELVAAISSSGSSTYYADSVKGRFTISRDNAKNTVYLQMNSLKPEDTAVYYCAVGGSFRYRVQYDYWGQGTQVTVSS
polyreactivity (PSR sort gate): high polyreactivity

QVQLVESGGGLVQAGGSLRLSCAASGLTFYYYAMGWYRQATGKERELVATITRSGGGTYFADSVKGRFTISRDNAKNTVYLQMNSLKPEDTAVYYCAADLSWYVLFSGLYDYWGQGTQVTVSS
polyreactivity (PSR sort gate): high polyreactivity

QVQLVESGGGLVQAGGSLRLSCAASGSIFYPYAMGWYRQAPGKERELVAAISWSGTRTYYADSVKGRFTISRDNAKNTVYLQMNSLKPEDTAVYYCAAYLPGYREQVDTNSWGQGTQVTVSS
polyreactivity (PSR sort gate): low polyreactivity

QVQLVESGGGLVQAGGSLRLSCAASGSTFWYNAMGWYRQAPGTEREFVAAISSRGGNTFYADSVKGRFTISRDNAKNTVYLQMNSLKPEDTAVYYCDARFNRPYDYWGQGTQVTVSS
polyreactivity (PSR sort gate): low polyreactivity

QVQLVESGGGLVQAGGSLRLSCAASGSIFGSYAMGWYRQAPGKERDLVAAISGSGGRTYYADSVKGRFTISRDNAKNTVYLQMNSLKPEDTAVYYCAAAYPRVTYKYGYYWGQGTQVTVSS
polyreactivity (PSR sort gate): high polyreactivity

QVQHVESRGGLVQAGGSLRLRCAASGRIFSHYAMGWYRQAPGKERELVAAITSDGSTNYADSVKGRFTISRDNAKNTVYLQMNSLKPEDTAVYYCAKYVHIPYYYYLFGSYDYWGQGSQVTVSS
polyreactivity (PSR sort gate): low polyreactivity

QVQLEESGGGLVKAGGSIRLSCAASGLIFYSYAMVWYRHAPGKERELVAVITRSGGNTNYADSVKGRFTISRDNAKNTVYLQMNSRKPEDTAVYYCATRGIWKKVPYYYWGQGTQVTVSS
polyreactivity (PSR sort gate): high polyreactivity

QDQLVESGGGLVQAGGSLRLSCAASGRILKYNAMGWYRQAPGKERELVAAISYRGGSTYYADSVKGRFTISRDNAMNTVYLQMNSLKPEDTAVYYCNAGGGILNGPLFDYWGQGTQVTVSS
polyreactivity (PSR sort gate): low polyreactivity

QVQHVESRGGLVQAGGSLRLSCAASGSTIISNAQGWYRLAPGKERELVASIRSSGSTNYADSVKGRFTISRDNAKNTVYLKMNSLKPEDTAVYYCAAGSYWVQFQYDYWGQGTQVTVSS
polyreactivity (PSR sort gate): low polyreactivity

QVQLVESGGGLVQAGGSLRLSCAASGLTFRYNAMGWYRQAPGKERELVAAIRTSGGSTYYADSVKGRFTISRDNAKNTVYLQMNSLKPEDTAVYYCAARSKSYYGGYARGYWGQGTQVTVSS
polyreactivity (PSR sort gate): high polyreactivity

QVQLVESGGGLVQAGGSLRLSCDASGSIFILYAMGWYRQAPGKERELVAGITLSTGTTSYADSVKGRFTISRDNAKNTVYLQMNSLKPVDTAVYYCNAVPSQHDEFDYWGQGTQVTVSS
polyreactivity (PSR sort gate): low polyreactivity

QVQLVESGGGLVQAGGSLRLSCAASGSIFTHNAMGSYRQAPGKERELVAAISSGGSTNYADSVKGRFTISRDNAMNTVYLQMNSLKPDDTAVYYCAISIDGWYWRRRRYDYWGQGTQVTVSS
polyreactivity (PSR sort gate): low polyreactivity

QVQLVESGGGLVQAGGSLRLSCAASGITYPRYTMGWYRQAPGKERQLVAAITRRSGSTNYADSVKGRITISRDNAKNTVYLQMNSLKPEDTAVYYCAAVVQVYDRGYHVIAKYYYWGQGTQVTVSS
polyreactivity (PSR sort gate): high polyreactivity
